Broadly, the stoichiometry N is a count of units in the complex or per binding partner.

Stoichiometry N data for 1 substance are collected here from paper PMC10946715.

For this assay, the target named is Cyc15 (Streptomyces sp. NL15-2 K). As to the kind of experiment: crystal structure; X-ray crystal structure of Cyc15 at 1.7 Å, molecular replacement with an AlphaFold 2.0 search model; asymmetric unit with two molecules (Chain A and Chain B).

Cyc15 (enzyme) came in with a stoichiometry N of 2.
